According to article PMC5727187, “Insights into the structure and assembly of a bacterial cellulose secretion system” (Nature Communications, 2017):

What was measured:
[1] = molecular target: the molecule itself; test: negative-stain electron microscopy; Inner membrane subcomplex purified from BL21 (DE3) expressing bcs^HisRQA^HA-FLAGB-pCDF-Duet; reconstruction at 21.1 Å
[2] = molecular target: the molecule itself; test: negative-stain electron microscopy; Bcs macrocomplex purified from E. coli 1094 bcsA^HA-FLAG 2K7, GraFix cross-linked in the gradient; non-symmetrized reconstruction at 16.7 Å

Row | Protein | stoichiometry N [1] | stoichiometry N [2]
1 | BcsB (recombinant, BL21) (natural protein, E. coli 1094, UniProt P37652 26-779, looked up, BcsB, amplified from genomic DNA of E. coli 1094 bcsA^HA-FLAG; source: E. coli BL21 (DE3), bcs^HisRQA^HA-FLAGB-pCDF-Duet, co-expressed, detergent-solubilised membranes; purified complex for EM) TPATQPLINAEPAVAAQTEQNPQVGQVMPGVQGADAPVVAQNGPSRDVKLTFAQIAPPPGSMVLRGINPNGSIEFGMRSDEVVTKAMLNLEYTPSPSLLPVQSQLKVYLNDELMGVLPVTKEQLGKKTLAQMPINPLFISDFNRVRLEFVGHYQDVCEKPASTTLWLDVGRSSGLDLTYQTLNVKNDLSHFPVPFFDPSDNRTNTLPMVFAGAPDVGLQQASAIVASWFGSRSGWRGQNFPVLYNQLPDRNAIVFATNDKRPDFLRDHPAVKAPVIEMINHPQNPYVKLLVVFGRDDKDLLQAAKGIAQGNILFRGESVVVNEVKPLLPRKPYDAPNWVRTDRPVTFGELKTYEEQLQSSGLEPAAINVSLNLPPDLYLMRSTGIDMDINYRYTMPPVKDSSRMDISLNNQFLQSFNLSSKQEANRLLLRIPVLQGLLDGKTDVSIPALKLGATNQLRFDFEYMNPMPGGSVDNCITFQPVQNHVVIGDDSTIDFSKYYHFIPMPDLRAFANAGFPFSRMADLSQTITVMPKAPNEAQMETLLNTVGFIGAQTGFPAINLTVTDDGSTIQGKDADIMIIGGIPDKLKDDKQIDLLVQATESWVKTPMRQTPFPGIVPDESDRAAETRSTLTSSGAMAAVIGFQSPYNDQRSVIALLADSPRGYEMLNDAVNDSGKRATMFGSVAVIRESGINSLRVGDVYYVGHLPWFERVWYALANHPILLAVLAAISVILLAWVLWRLLRIISRRRLNPDNE | 6 | 
2 | BcsB (natural protein, E. coli 1094, UniProt P37652 26-779, looked up, BcsB, E. coli strain 1094, untagged; source: E. coli 1094 bcsA^HA-FLAG 2K7 strain (bcs operons overexpressed from the chromosome), solubilised membranes; purified complex for EM) TPATQPLINAEPAVAAQTEQNPQVGQVMPGVQGADAPVVAQNGPSRDVKLTFAQIAPPPGSMVLRGINPNGSIEFGMRSDEVVTKAMLNLEYTPSPSLLPVQSQLKVYLNDELMGVLPVTKEQLGKKTLAQMPINPLFISDFNRVRLEFVGHYQDVCEKPASTTLWLDVGRSSGLDLTYQTLNVKNDLSHFPVPFFDPSDNRTNTLPMVFAGAPDVGLQQASAIVASWFGSRSGWRGQNFPVLYNQLPDRNAIVFATNDKRPDFLRDHPAVKAPVIEMINHPQNPYVKLLVVFGRDDKDLLQAAKGIAQGNILFRGESVVVNEVKPLLPRKPYDAPNWVRTDRPVTFGELKTYEEQLQSSGLEPAAINVSLNLPPDLYLMRSTGIDMDINYRYTMPPVKDSSRMDISLNNQFLQSFNLSSKQEANRLLLRIPVLQGLLDGKTDVSIPALKLGATNQLRFDFEYMNPMPGGSVDNCITFQPVQNHVVIGDDSTIDFSKYYHFIPMPDLRAFANAGFPFSRMADLSQTITVMPKAPNEAQMETLLNTVGFIGAQTGFPAINLTVTDDGSTIQGKDADIMIIGGIPDKLKDDKQIDLLVQATESWVKTPMRQTPFPGIVPDESDRAAETRSTLTSSGAMAAVIGFQSPYNDQRSVIALLADSPRGYEMLNDAVNDSGKRATMFGSVAVIRESGINSLRVGDVYYVGHLPWFERVWYALANHPILLAVLAAISVILLAWVLWRLLRIISRRRLNPDNE |  | 6
